Measurements reported in the supplement of paper PMC7125110.
± gives the standard error. For part of these data: This sample holds only a part of the variants without activity.

B1: glmS ribozyme (parent)
chain: AUAAAAGCGCCAGAACUACAGAAAUGUAGUUGACGAGGAGGAGGUUUAUCGAAUUUUCGGCGGAUGCCUCCAAA

Experiments:
Settings in all cases: with glucosamine-6-phosphate
[1] = variants of: B1; experiment: kcat; higher = faster cleavage; RNA array
How it was run: (§1)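 Barcoded ribozyme variants were transcribed in situ on sequenced MiSeq chips by E. coli RNA polymerase. At 37 °C, a hybridised Cy3 probe tracked them while glucosamine-6-phosphate (40 μM to 10 mM) in HEPES/KCl/Mg(OAc)2 buffer flowed in and tiles were imaged over ~14 h. Per-tile medians of signals normalised to baseline and to non-cleaving reference variants were fit to one- or two-exponential decays, giving kobs. kcat and KM came from weighted Michaelis–Menten fits across concentrations.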

[2] = variants of: B1; experiment: self-cleavage kobs at 10000 uM GlcN6P; higher = faster cleavage; RNA array
How it was run: as §1

[3] = variants of: B1; experiment: self-cleavage kobs at 40 uM GlcN6P; higher = faster cleavage; RNA array
How it was run: as §1

[4] = variants of: B1; experiment: self-cleavage kobs at 640 uM GlcN6P; higher = faster cleavage; RNA array
How it was run: as §1

[5] = variants of: B1; experiment: self-cleavage kobs at 2500 uM GlcN6P; higher = faster cleavage; RNA array
How it was run: as §1

[6] = variants of: B1; experiment: self-cleavage kobs at 160 uM GlcN6P; higher = faster cleavage; RNA array
How it was run: as §1

[7] = variants of: B1; experiment: KM; higher = weaker cofactor use; RNA array
How it was run: as §1

Variant | kcat [1] [s⁻¹] | self-cleavage kobs at 10000 uM GlcN6P [2] [s⁻¹] | self-cleavage kobs at 40 uM GlcN6P [3] [s⁻¹] | self-cleavage kobs at 640 uM GlcN6P [4] [s⁻¹] | self-cleavage kobs at 2500 uM GlcN6P [5] [s⁻¹] | self-cleavage kobs at 160 uM GlcN6P [6] [s⁻¹] | KM [7] [µM]
AUAAAAGCGCCAGAACUACAGAAAUGUAGUUGACGAGGAGGAGGUUUAUCGAAUUUUCGGCGGAUGCGCCCAAA | 1.67e-05 ± 1.9e-06 | < 1e-05 |  |  |  |  | 
AUAAAAGCGCCAGAACUACAGAAAUGUAGUUGACGAGGAGGAGGUUUAUCGAAUUUUCGGCGGAUGGCUCAAAA | < 1e-05 |  |  |  |  |  | 
AUAAAAGCGCCAGAACUACAGAAAUGUAGUUGACGAGGAGGAGGUUUAUCGAAUUUUCGGCGGAUGCGUACAAA | < 1e-05 | < 1e-05 | < 1e-05 |  |  |  | 
AUAAAAGCGCCAGAACUACAGAAAUGUAGUUGACGAGGAGGAGGUUUAUCGAAUUUUCGGCGGAUGACUGCAAA | 3.41e-05 ± 3.9e-06 | 3.34e-05 ± 5.8e-06 |  | 4.26e-05 ± 9.9e-06 | 2.92e-05 ± 7.8e-06 |  | 
AUAAAAGCGCCAGAACUACAGAAAUGUAGUUGACGAGGAGGAGGUUUAUCGAAUUUUCGGCGGAUGUCUCAAAA | 0.000182 ± 3.8e-05 | 0.000168 ± 2.2e-05 |  | 6.34e-05 ± 9e-06 | 0.000131 ± 1.6e-05 | 6.95e-05 ± 1.8e-05 | 
AUAAAAGCGCCAGAACUACAGAAAUGUAGUUGACGAGGAGGAGGUUUAUCGAAUUUUCGGCGGAUUUCUCCAAA | 0.000913 ± 3.1e-05 | 0.000831 ± 7.9e-05 | 3.44e-05 ± 7.1e-06 | 0.000333 ± 4.2e-05 | 0.000607 ± 8.4e-05 | 0.00011 ± 1.3e-05 | 1130 ± 66
AUAAAAGCGCCAGAACUACAGAAAUGUAGUUGACGAGGAGGAGGUUUAUCGAAUUUUCGGCGGAUGCCACUAAA | 7.42e-05 ± 1.9e-05 | 4.27e-05 ± 1.7e-05 |  | 9.28e-05 ± 1.6e-05 | 8.39e-05 ± 1.6e-05 | 3.69e-05 ± 1.3e-05 | 
AUAAAAGCGCCAGAACUACAGAAAUGUAGUUGACGAGGAGGAGGUUUAUCGAAUUUUCGGCGGAUGCGUCUAAA | < 1e-05 |  |  |  |  |  | 
AUAAAAGCGCCAGAACUACAGAAAUGUAGUUGACGAGGAGGAGGUUUAUCGAAUUUUCGGCGGAUGACCCCAAA | 0.00359 ± 0.0017 | 0.00665 ± 0.0025 | 0.000527 ± 0.00011 | 0.0019 ± 0.00079 |  |  | 
AUAAAAGCGCCAGAACUACAGAAAUGUAGUUGACGAGGAGGAGGUUUAUCGAAUUUUCGGCGGAUGCUUCAAAA | 1.12e-05 ± 6.7e-07 |  |  |  |  |  | 
AUAAAAGCGCCAGAACUACAGAAAUGUAGUUGACGAGGAGGAGGUUUAUCGAAUUUUCGGCGGAUGCUUCUAAA | 0.000142 ± 7.2e-06 | 0.000123 ± 6.6e-06 |  | 4.62e-05 ± 4.3e-06 | 0.000103 ± 7.4e-06 |  | 1240 ± 180
AUAAAAGCGCCAGAACUACAGAAAUGUAGUUGACGAGGAGGAGGUUUAUCGAAUUUUCGGCGGAUGGGUCCAAA | 4.53e-05 ± 9.2e-06 |  |  | 5.01e-05 ± 6.5e-06 | 3.7e-05 ± 4.7e-06 | 6.2e-05 ± 7.7e-06 | 
AUAAAAGCGCCAGAACUACAGAAAUGUAGUUGACGAGGAGGAGGUUUAUCGAAUUUUCGGCGGAUUCCUGCAAA | 0.000127 ± 1.1e-05 | 0.000117 ± 1.9e-05 |  | 5.98e-05 ± 1.4e-05 | 0.000112 ± 1.7e-05 | 3.86e-05 ± 1.7e-05 | 550 ± 180
AUAAAAGCGCCAGAACUACAGAAAUGUAGUUGACGAGGAGGAGGUUUAUCGAAUUUUCGGCGGAUGUAUCCAAA | 4.58e-05 ± 9.2e-06 | 2.96e-05 ± 8.7e-06 |  | 4.09e-05 ± 9.8e-06 | 5.66e-05 ± 7.5e-06 |  | 
AUAAAAGCGCCAGAACUACAGAAAUGUAGUUGACGAGGAGGAGGUUUAUCGAAUUUUCGGCGGAUGUGUCCAAA | 2.52e-05 ± 6.7e-06 |  |  | 3.49e-05 ± 1.2e-05 | 2.57e-05 ± 1.2e-05 |  | 
AUAAAAGCGCCAGAACUACAGAAAUGUAGUUGACGAGGAGGAGGUUUAUCGAAUUUUCGGCGGAUGACUCAAAA | 0.000401 ± 8.3e-05 | 0.000361 ± 4.3e-05 | 4.21e-05 ± 1.2e-05 | 0.00013 ± 4.6e-05 | 0.000277 ± 4.8e-05 |  | 
AUAAAAGCGCCAGAACUACAGAAAUGUAGUUGACGAGGAGGAGGUUUAUCGAAUUUUCGGCGGAUGAGUCCAAA | 4.23e-05 ± 1e-05 | 2.51e-05 ± 1.1e-05 |  | 5.98e-05 ± 1.7e-05 | 5.59e-05 ± 1.3e-05 | 4.13e-05 ± 1.5e-05 | 
AUAAAAGCGCCAGAACUACAGAAAUGUAGUUGACGAGGAGGAGGUUUAUCGAAUUUUCGGCGGAUGAUUCCAAA | 0.000125 ± 1.7e-05 | 0.000106 ± 1e-05 |  | 6.61e-05 ± 5.3e-06 | 0.000126 ± 9.8e-06 | 3.25e-05 ± 7.3e-06 | 497 ± 200
AUAAAAGCGCCAGAACUACAGAAAUGUAGUUGACGAGGAGGAGGUUUAUCGAAUUUUCGGCGGAUUCCUCGAAA | 8.21e-05 ± 2.6e-06 | 6.65e-05 ± 1.1e-05 |  |  | 4.34e-05 ± 1.2e-05 |  | 2320 ± 240
